# Laboratory results as given in EP4499701A1 (dated 2025).
# B1: HC18 (antibody, human IgG1, kappa, V domains shown)
# VH: EVQLQQSGTVLARPGASVKMSCKTSGYTFTSYWMHWVKQRPGQGLEWIGSIYPENSDTSYNQKFKGKAKLTAVTSASTAYMDLSSLTNEDSAVYYCSIYHGYDGDYWGQGTTLTVSS
# VL: QIVLTQSPAIMSASPGEKVTITCSASSSVSYMYWFQQKPGTSPKLWIYSTSNLASGVPARFSGSGSGTSYSLTISRMEAEDAATYYCQQRSSYPYTFGGGTKLEIKR
# notes: also called mAb HC18; the antibody of the present disclosure
# Target: T1, human FGFR2b expressed on cells (human, UniProt P21802-3 22-822)
# T1 construct: whole, on cells; Used for the CHOK1 transfectants (FACS), the Ba/F3 cells with full-length human FGFR2b (ADCC) and the receptor on SNU-16 cells (signalling, proliferation); also called hFGFR2b-expressing CHOK1 cells; CHOK1-FGFR2IIIb transfectants
# T1 sequence (P21802 other isoform, or with tags, fused parts or gaps): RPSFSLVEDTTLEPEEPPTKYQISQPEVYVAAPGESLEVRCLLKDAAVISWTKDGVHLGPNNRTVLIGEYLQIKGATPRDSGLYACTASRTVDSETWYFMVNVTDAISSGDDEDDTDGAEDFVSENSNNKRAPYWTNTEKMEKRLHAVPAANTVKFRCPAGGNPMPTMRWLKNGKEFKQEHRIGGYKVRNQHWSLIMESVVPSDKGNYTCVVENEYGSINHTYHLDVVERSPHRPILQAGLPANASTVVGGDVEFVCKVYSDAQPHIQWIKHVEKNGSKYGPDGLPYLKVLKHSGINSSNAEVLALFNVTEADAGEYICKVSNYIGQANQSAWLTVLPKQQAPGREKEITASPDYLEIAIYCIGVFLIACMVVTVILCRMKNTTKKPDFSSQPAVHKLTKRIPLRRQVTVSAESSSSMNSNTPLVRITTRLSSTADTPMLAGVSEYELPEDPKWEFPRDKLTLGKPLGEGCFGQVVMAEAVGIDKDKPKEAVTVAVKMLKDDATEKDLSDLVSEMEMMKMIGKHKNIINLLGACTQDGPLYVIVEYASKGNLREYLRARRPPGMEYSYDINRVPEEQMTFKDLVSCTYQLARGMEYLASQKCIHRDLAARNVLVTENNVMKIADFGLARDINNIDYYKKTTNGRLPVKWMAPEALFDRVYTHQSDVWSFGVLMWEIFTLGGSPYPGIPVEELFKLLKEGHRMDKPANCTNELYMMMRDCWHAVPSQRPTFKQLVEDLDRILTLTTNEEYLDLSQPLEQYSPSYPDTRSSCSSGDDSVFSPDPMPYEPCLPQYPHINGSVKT
# Experiment: flow cytometry on CHOK1 cells expressing hFGFR2b
binder,measurement,value
B1,binding result,binds
